Experimental data: patent US20220105194A1, “CONJUGATE COMPRISING LIGAND, SPACER, PEPTIDE LINKER, AND BIOMOLECULE” (ASTELLAS PHARMA INC., priority 2019, published 2022)

Tests used:
[1] = mouse, in vivo
Description: (§1) A Gd-labeled conjugate of the conjugate containing a peptide linker produced in one of the above Examples was administered from the tail vein of mice (BALB/c or BALB/c nu/nu) so that the protein mass was 0.02 mg (100 μL) per animal. After about 24 hours, the mice were sacrificed and the kidneys were removed, and the amount of Gd in the kidneys was measured using ICP-MS. The present test was carried out in 3 cases in each group, the mean value of the 3 cases was calculated, and the amount of Gd contained per kidney after administration was shown as a percentage (% of dose/tissue) of the total amount of Gd administered.
Based on the percentage of the control conjugate (% of dose/tissue), the proportion of decrease in the amount of Gd contained in the kidneys of each of the conjugates having a peptide linker was determined and shown in Table 28.

[2] = set-up: species or system mice (BALB/c nu/nu); details: mouse, in vivo
Description: A Gd-labeled conjugate of the conjugate containing a peptide linker produced in one of the above Examples was administered from the tail vein of tumor-bearing mice so that the protein mass was 0.02 mg (100 μL) per animal. As the tumor-bearing mice used in the present Example, mice (BALB/c nu/nu) that were in a tumor-bearing state brought about by transplanting human colorectal cancer cell line LS174T cells (ATCC(registered trademark); CL-188) at 2.0 to 5.0×10^6 cells/mouse subcutaneously on the back before administration of the sample were used. 24 hours after administration of the sample, the mice were sacrificed, the kidneys and the tumor were removed, and the amounts of Gd in the kidneys and in the tumor were measured using ICP-MS. The present test was carried out in 3 cases in each group, and the mean value of the 3 cases was calculated. The amount of Gd contained per kidney after administration was shown as a percentage of the amount of Gd administered (% of dose/tissue), and the amount of Gd contained per g of tumor tissue was shown as a percentage of the total amount of Gd administered (% of dose/g).

[3] = set-up: species or system mice (BALB/c or BALB/c nu/nu); details: mouse, in vivo
Description: as §1

Row | Molecule | Proportion of decrease (%) in the amount of Gd contained in the kidneys [1] [%] | Renal residual amount (cancer-bearing mice), % of dose/tissue [2] | Renal residual amount (cancer-bearing mice), Proportion of decrease (%) [2] [%] | Renal residual amount (normal mice), % of dose/tissue [3] | Renal residual amount (normal mice), Proportion of decrease (%) [3] [%]
1 | [Gd/DOTA-NH—(CH2CH2O)3—CH2—C(═O)—NH—CH2-(1,3-Ph)-C(═O)-Met-Gly-Lys*-Z2(#N)]p-Fab^2 (conjugate) heavy: EVQLVESGGGLVQPGGSLRLSCAASGFNIRDTYMHWVRQAPGKGLEWVARIDPANGNSRYVPKFQGRFTISADTSRNTAYLQMNSLRAEDTAVYYCAPFGYYVSDYAMAYWGQGTLVTVSSASTKGPSVFPLAPSSKSTSGGTAALGCLVKDYFPEPVTVSWNSGALTSGVHTFPAVLQSSGLYSLSSVVTVPSSSLGTQTYICNVNHKPSNTKVDKKVEPKSCD light: DIQLTQSPSSLSASVGDRVTITCRAGESVDIFGVGFLHWYQQKPGKAPKLLIYRASNLESGIPSRFSGSGSRTDFTLTISSLQPEDFATYYCQQTNEDPYTFGQGTKVEIKRTVAAPSVFIFPPSDEQLKSGTASVVCLLNNFYPREAKVQWKVDNALQSGNSQESVTEQDSKDSTYSLSSTLTLSKADYEKHKVYACEVTHQGLSSPVTKSFNRGEC | 78.0 | 8.40 % of dose/tissue | 67.48 |  | 
2 | Ex-No 10: (Y—S1—X)p-Fab^2: Y Gd/DOTA, S1 bond, X -Met-Ile-Lys*-Z2(#N)— (conjugate) heavy: EVQLVESGGGLVQPGGSLRLSCAASGFNIRDTYMHWVRQAPGKGLEWVARIDPANGNSRYVPKFQGRFTISADTSRNTAYLQMNSLRAEDTAVYYCAPFGYYVSDYAMAYWGQGTLVTVSSASTKGPSVFPLAPSSKSTSGGTAALGCLVKDYFPEPVTVSWNSGALTSGVHTFPAVLQSSGLYSLSSVVTVPSSSLGTQTYICNVNHKPSNTKVDKKVEPKSCD light: DIQLTQSPSSLSASVGDRVTITCRAGESVDIFGVGFLHWYQQKPGKAPKLLIYRASNLESGIPSRFSGSGSRTDFTLTISSLQPEDFATYYCQQTNEDPYTFGQGTKVEIKRTVAAPSVFIFPPSDEQLKSGTASVVCLLNNFYPREAKVQWKVDNALQSGNSQESVTEQDSKDSTYSLSSTLTLSKADYEKHKVYACEVTHQGLSSPVTKSFNRGEC |  |  |  | 20.10 % of dose/tissue | 31.46
3 | [Gd/DOTA-NH—CH2-(1,4-Ph)-NH—C(═O)-Met-Ile-NH—(CH2)2—Z(#N)]p-Fab^2 (conjugate) heavy: EVQLVESGGGLVQPGGSLRLSCAASGFNIRDTYMHWVRQAPGKGLEWVARIDPANGNSRYVPKFQGRFTISADTSRNTAYLQMNSLRAEDTAVYYCAPFGYYVSDYAMAYWGQGTLVTVSSASTKGPSVFPLAPSSKSTSGGTAALGCLVKDYFPEPVTVSWNSGALTSGVHTFPAVLQSSGLYSLSSVVTVPSSSLGTQTYICNVNHKPSNTKVDKKVEPKSCD light: DIQLTQSPSSLSASVGDRVTITCRAGESVDIFGVGFLHWYQQKPGKAPKLLIYRASNLESGIPSRFSGSGSRTDFTLTISSLQPEDFATYYCQQTNEDPYTFGQGTKVEIKRTVAAPSVFIFPPSDEQLKSGTASVVCLLNNFYPREAKVQWKVDNALQSGNSQESVTEQDSKDSTYSLSSTLTLSKADYEKHKVYACEVTHQGLSSPVTKSFNRGEC |  | 5.77 % of dose/tissue | 77.68 | 2.60 % of dose/tissue | 91.13
4 | [Gd/DOTA-NH—(CH2CH2O)3—CH2—C(═O)—NH—CH2-(1,3-Ph)-C(═O)-Met-Gly-Lys*-Z2(#S)]p-Fab^2 (conjugate) heavy: EVQLVESGGGLVQPGGSLRLSCAASGFNIRDTYMHWVRQAPGKGLEWVARIDPANGNSRYVPKFQGRFTISADTSRNTAYLQMNSLRAEDTAVYYCAPFGYYVSDYAMAYWGQGTLVTVSSASTKGPSVFPLAPSSKSTSGGTAALGCLVKDYFPEPVTVSWNSGALTSGVHTFPAVLQSSGLYSLSSVVTVPSSSLGTQTYICNVNHKPSNTKVDKKVEPKSCD light: DIQLTQSPSSLSASVGDRVTITCRAGESVDIFGVGFLHWYQQKPGKAPKLLIYRASNLESGIPSRFSGSGSRTDFTLTISSLQPEDFATYYCQQTNEDPYTFGQGTKVEIKRTVAAPSVFIFPPSDEQLKSGTASVVCLLNNFYPREAKVQWKVDNALQSGNSQESVTEQDSKDSTYSLSSTLTLSKADYEKHKVYACEVTHQGLSSPVTKSFNRGEC | 77.4 | 9.40 % of dose/tissue | 63.61 |  | 
5 | [Gd/DOTA-NH—(CH2CH2O)3—CH2—C(═O)—NH—CH2-(1,3-Ph)-C(═O)-Gly-Lys*—Z2(#N)]p-Fab^2 (conjugate) heavy: EVQLVESGGGLVQPGGSLRLSCAASGFNIRDTYMHWVRQAPGKGLEWVARIDPANGNSRYVPKFQGRFTISADTSRNTAYLQMNSLRAEDTAVYYCAPFGYYVSDYAMAYWGQGTLVTVSSASTKGPSVFPLAPSSKSTSGGTAALGCLVKDYFPEPVTVSWNSGALTSGVHTFPAVLQSSGLYSLSSVVTVPSSSLGTQTYICNVNHKPSNTKVDKKVEPKSCD light: DIQLTQSPSSLSASVGDRVTITCRAGESVDIFGVGFLHWYQQKPGKAPKLLIYRASNLESGIPSRFSGSGSRTDFTLTISSLQPEDFATYYCQQTNEDPYTFGQGTKVEIKRTVAAPSVFIFPPSDEQLKSGTASVVCLLNNFYPREAKVQWKVDNALQSGNSQESVTEQDSKDSTYSLSSTLTLSKADYEKHKVYACEVTHQGLSSPVTKSFNRGEC | 44.8 |  |  |  | 
6 | [Gd/DOTA-NH—CH2-(1,3-Ph)-C(═O)-Met-Gly-Lys*-Z2(#S)]p-Fab^2 (conjugate) heavy: EVQLVESGGGLVQPGGSLRLSCAASGFNIRDTYMHWVRQAPGKGLEWVARIDPANGNSRYVPKFQGRFTISADTSRNTAYLQMNSLRAEDTAVYYCAPFGYYVSDYAMAYWGQGTLVTVSSASTKGPSVFPLAPSSKSTSGGTAALGCLVKDYFPEPVTVSWNSGALTSGVHTFPAVLQSSGLYSLSSVVTVPSSSLGTQTYICNVNHKPSNTKVDKKVEPKSCD light: DIQLTQSPSSLSASVGDRVTITCRAGESVDIFGVGFLHWYQQKPGKAPKLLIYRASNLESGIPSRFSGSGSRTDFTLTISSLQPEDFATYYCQQTNEDPYTFGQGTKVEIKRTVAAPSVFIFPPSDEQLKSGTASVVCLLNNFYPREAKVQWKVDNALQSGNSQESVTEQDSKDSTYSLSSTLTLSKADYEKHKVYACEVTHQGLSSPVTKSFNRGEC | 58.3 | 12.33 % of dose/tissue | 52.26 |  | 
7 | [Gd/DOTA-NH—CH2-(1,3-Ph)-C(═O)-Met-Gly-Lys*-Z2(#N)]p-Fab^2 (conjugate) heavy: EVQLVESGGGLVQPGGSLRLSCAASGFNIRDTYMHWVRQAPGKGLEWVARIDPANGNSRYVPKFQGRFTISADTSRNTAYLQMNSLRAEDTAVYYCAPFGYYVSDYAMAYWGQGTLVTVSSASTKGPSVFPLAPSSKSTSGGTAALGCLVKDYFPEPVTVSWNSGALTSGVHTFPAVLQSSGLYSLSSVVTVPSSSLGTQTYICNVNHKPSNTKVDKKVEPKSCD light: DIQLTQSPSSLSASVGDRVTITCRAGESVDIFGVGFLHWYQQKPGKAPKLLIYRASNLESGIPSRFSGSGSRTDFTLTISSLQPEDFATYYCQQTNEDPYTFGQGTKVEIKRTVAAPSVFIFPPSDEQLKSGTASVVCLLNNFYPREAKVQWKVDNALQSGNSQESVTEQDSKDSTYSLSSTLTLSKADYEKHKVYACEVTHQGLSSPVTKSFNRGEC | 50.3 |  |  |  | 
